# Results: patent US11141492B2, “Anticancer combinations” (City of Hope, priority 2013, dated 2021)
# B1: PEGPH20™: pegylated recombinant human hyaluronidase PH-20 (Halozyme, Inc.) (protein, listed as Homo Sapiens)
# chain: MGVLKFKHIFFRSFVKSSGVSQIVFTFLLIPCCLTLNFRAPPVIPNVPFLWAWNAPSEFCLGKFDEPLDMSLFSFIGSPRINATGQGVTIFYVDRLGYYPYIDSITGVTVNGGIPQKISLQDHLDKAKKDITFYMPVDNLGMAVIDWEEWRPTWARNWKPKDVYKNRSIELVQQQNVQLSLTEATEKAKQEFEKAGKDFLVETIKLGKLLRPNHLWGYYLFPDCYNHHYKKPGYNGSCFNVEIKRNDDLSWLWNESTALYPSIYLNTQQSPVAATLYVRNRVREAIRVSKIPDAKSPLPVFAYTRIVFTDQVLKFLSQDELVYTFGETVALGASGIVIWGTLSIMRSMKSCLLLDNYMETILNPYIINVTLAAKMCSQVLCQEQGVCIRKNWNSSDYLHLNPDNFAIQLEKGGKFTVRGKPTLEDLEQFSEKFYCSCYSTLSCKEKADVKDTDAVDVCIADGVCIDAFLKPPMETEEPQIFYNASPSTLSATMFIVSILFLIISSVASL
# modifications: PEGylated
# What was measured:
# hyaluronan = assay: Hyaluronan staining of KPC-luc tumor sections; type: in vivo, mice; details: forty-eight hours after treatment; 14 day orthotopic tumors
# KPC-luc tumors = assay: Orthotopic KPC-luc pancreatic tumor model, intravital imaging (IVIS); type: in vivo, C57BL/6 mice; details: PEGPH20 4.5 mg/kg (~90 ug/mouse) i.v. day 7; shIDO-ST 5×10^6 cfu/mouse i.v. day 8 (alone: days 8 and 12); n=3
# Protocol: To determine the effects of shIDO-ST and PEGPH20™, nine C57BL/6 mice were injected orthotopically (in the pancreas) with 5×10^5 KPC-luc cells. Three small groups (n=3) were created: shIDO-ST alone, PEGPH20™ alone, and shIDO-ST with PEGPH20™. The shIDO-ST alone group received shIDO-ST at a dose of 5×10^6 cfu/mouse through intravenous (i.v.) injection on days 8 and 12. PEGPH20™ alone group received PEGPH20™ at a dose of 4.5 mg/kg (˜90 ug/mouse) on day 7 through i.v. injection. The combination (PEGPH20™ with shIDO-ST) group received PEGPH20™ at 4.5 mg/kg on day 7 followed by treatment with shIDO-ST on day 8 at 5×10^6 cfu/mouse. Mice were imaged using an intravital imaging system (IVIS) at indicated time points after tumor cell implantation. […]
# Titration of combination treatment with shIDO-ST and PEGPH20™ was performed to reduce the toxicity observed in initial experiment (FIG. 2). […] Photons emitted from mice imaged in FIG. 2 were quantitated using Living Image® software.
# Due to the sensitivity of 7 day KPC-luc tumors to the combination PEGPH20™ and […] treatment (FIG. 2), treatment of implanted KPC-luc tumors was delayed to day 14. […] Doses (previously determined from titration studies described in FIG. 2) consisted of 45 ug of PEGPH20™ followed by 5×10^6 cfu/mouse of shIDO-ST or shScr-ST. […] Photons emitted from mice imaged in FIG. 4 were quantitated using Living Image® software. […]
# [1] = tested on: vessels within the tumor mass; assay: Anti-CD31 staining of vessels within the tumor mass; type: in vivo, mice; details: 14 day tumors, versus untreated (majority of closed vessels)
# Text: Sections from 14 day tumors of mice untreated or treated with PEGPH20 were stained with anti-CD31 antibody to locate cross sections of vessels within the tumor mass. FITC-conjugated secondary specific to CD31 primary and DAPI staining were visualized by fluorescence microscopy.
molecule,measurement,setting,value
B1,hyaluronan in KPC-luc tumor tissue sections,hyaluronan,significant depletion of hyaluronan
same,tumor growth by IVIS imaging,KPC-luc tumors,euthanized due to significantly large tumors
same,open vessels in tumors (CD31 staining),[1],Many more open vessels
